Source: patent publication US20190195891A1, “DIAGNOSTIC AND THERAPEUTIC USES OF EXOSOMES” (Yeda Research and Development Co. Ltd., priority 2016, published 2019)
Positions count from the first letter of the chain named. Numbers in names are those of the source. Entries after “also recorded” stand apart in the source; their conditions may differ.

Key:
HepG2 cells [1] = assay: Fate of EGFR after EGF binding in control and MLKL knocked-down HepG2 cells (immunocytochemistry); assay type: cell-based, human; conditions: 2 hours after ligand binding; for cellular levels of the EGFR: HepG2 cells after EGF application; for difference in EGFR between cells expressing MLKL and cells deficient of it: control vs MLKL knocked-down HepG2 cells
Procedure: (§1) Bafilomycin A1 from Santa Cruz Biotechnology was applied to the cells at 100 nM. Chloroquine was applied at 25 μM, 4-hydroxytamoxifen was applied at 1 μM, and ionomycin was applied at 1 μM, ultra pure LPS, applied at 1 μg/ml (all from Sigma). Human ECF from Biological industries, mouse EGF from ProSpec and human TNF from Ybdy were biotinylated using an EZ-Link biotinylation kit (Thermo Fisher Scientific) and then applied to the cells at 5 μg/ml or injected intravenously into mice at a dose of 10 μg/mouse. Bovine serum albumin (BSA), tagged with gold particles (BSA-gold, CMC Utrecht), was applied to the cells at an optical density of 2. To trigger necroptosis, TNF (1000 units/ml) was applied together with the bivalentIAP (inhibitor of apoptosis protein) antagonist BV6 and the caspase inhibitor z-VAD-fmk, both from WuXu App Tec, at concentrations of 1 μM and 20 μM respectively. IL-1β ELISA kit was from eBiosicne.
Prior to ligand treatment the cells were incubated for 12 hours in serum-free medium. Biotinylated EGF and TNF were applied to the cells for 30 minutes on ice in CO2-independent medium (Thermo Fisher Scientific), and this was followed by rinsing and rther incubation without those ligands at 37° C. For western blot analysis, cellular proteins were extracted at the indicated times in RIPA buffer (20 mM Tris-HCl pH 7.5, 150 mM NaCl, 1 mM EDTA, 1 mM EGTA, 1% NP-40, 0.5% sodium deoxycholate, 0.1% sodium dodecyl sulfate (SDS), protease and phosphatase inhibitors). For immunofluorescence microscopy, cells were fixed in 4% paraformaldehyde (PFA) in PBS and then stained with fluorescence-conjugated antibodies.
Immunostaining was performed as described previously [Yoon S. et al., Cell death and differentiation (2016) 23, 253-260]. Briefly, cells fixed with 4% PFA in PBS were permeabilized by incubation in methanol at −20° C. for 10 minutes, followed by incubation in blocking buffer (20% normal goat serum (NGS), 2% BSA, 0.3 M glycine and 0.1% Tween-20 in PBS, pH 7.2). Following incubation with the indicated antibodies, images were obtained using an Olympus IX 81 confocal microscope (Olympus Imaging), with a UPLSAPO 60×1.35 NA oil objective and FluoView FV1000 software (Olympus Imaging). Images were processed using Imaris software from Bitplane.

MEFs = assay: Exosome generation by MEFs, ionomycin treatment; assay type: cell-based, mouse
Procedure: as §1, with “To trigger necroptosis, TNF (1000 units/ml) was applied together with the bivalentIAP (inhibitor of apoptosis protein) antagonist BV6 and the caspase inhibitor z-VAD-fmk, both from WuXu App Tec, at concentrations of 1 μM and 20 μM respectively. IL-1β ELISA kit was from eBiosicne.” left out
(§2) In all experiments aimed at assessing the generation of exosomes by cultured cells, the FBS supplementing the growth medium was pre-depleted of bovine exosomes by centrifugation at […] for 18 hours. […] The stimuli whose effect on exosome generation was to be assessed were applied for the indicated times towards the end of this 12 hour period. […] Size spectra and amounts of the particles in the exosome preparations were determined by Nanoparticle Tracking Analysis using the NanoSight NS300 device (Malvern Instruments) according to the manufacturer's instructions.

HepG2 cells [2] = assay: Exosome generation by HepG2 cells, ionomycin treatment; assay type: cell-based, human
Procedure: as §1, with “To trigger necroptosis, TNF (1000 units/ml) was applied together with the bivalentIAP (inhibitor of apoptosis protein) antagonist BV6 and the caspase inhibitor z-VAD-fmk, both from WuXu App Tec, at concentrations of 1 μM and 20 μM respectively. IL-1β ELISA kit was from eBiosicne.” left out
as §2

HT29 cells = assay: Exosome generation by HT29 cells after triggering necroptosis (Nanoparticle Tracking Analysis, western blot); assay type: cell-based, human; conditions: HT-29 cells treated with TBZ
Procedure: as §1, with “To trigger necroptosis, TNF (1000 units/ml) was applied together with the bivalentIAP (inhibitor of apoptosis protein) antagonist BV6 and the caspase inhibitor z-VAD-fmk, both from WuXu App Tec, at concentrations of 1 μM and 20 μM respectively. IL-1β ELISA kit was from eBiosicne.” left out
as §2
Cells and liver samples were extracted in RIPA and in 1% SDS, respectively. […] Band intensity was quantified using the ImageJ software.

HepG2 cells [3] = assay: Cell death of HepG2 cells inducibly expressing MLKL mutants; assay type: cell-based, human; conditions: inducible expression in HepG2 cells
[4] = tested on: MLKL knocked-down HT-29 cells; assay: Yield of exosomes in MLKL knocked-down HT-29 cells inducibly expressing MLKL mutants; assay type: cell-based, human; conditions: inducible expression, compared to wild-type MLKL
Source text: (§3) The various mutants of MLKL were expressed inducibly in HT-29 cells in which the endogenous MLKL mRNA was constitutively knocked down. Expression was achieved by lentiviral infection with the GEV16/pF5x UAS system as described previously [Dunning C J et al. The EMBO Journal (2007) 26, 3227-3237, doi:10.1038/sj.emboj.7601748].
In all experiments aimed at assessing the generation of exosomes by cultured cells, the FBS supplementing the growth medium was pre-depleted of bovine exosomes by centrifugation at […] for 18 hours. Except where otherwise indicated, the exosomes were collected after 12 hours of incubation. The stimuli whose effect on exosome generation was to be assessed were applied for the indicated times towards the end of this 12 hour period. Unless otherwise indicated, TBZ was applied for 4 hours. For recovery of exosomes from the mice, mouse blood samples were collected in MiniCollect®TUBEs (Greiner Bio-One) and centrifuged at 3000 rpm for 15 minutes. Mouse plasma and cell-growth media were passed through 0.2 μm filters and centrifuged at […] for 90 minutes, after which the pellet was suspended in phosphate-buffered saline (PBS) and re-sedimented by centrifugation as above. Size spectra and amounts of the particles in the exosome preparations were determined by Nanoparticle Tracking Analysis using the NanoSight NS300 device (Malvern Instruments) according to the manufacturer's instructions.

[5] = tested on: MLKL knocked-down HepG2 cells; assay: Levels of EGF and EGFR in MLKL knocked-down HepG2 cells inducibly expressing MLKL mutants (western blot); assay type: cell-based, human; conditions: EGF applied 7 hours after induction
[6] = tested on: MLKL knocked-down HT-29 cells; conditions: cited from earlier work; for death in HT29 cells on inducible expression: Yoon et al. (2016); for induction of necroptosis/death by TBZ: as previously reported (Sun et al. 2012; Quarato et al. 2016)
[7] = tested on: MLKL knocked-down HT-29 cells; assay: Cell death in MLKL knocked-down HT-29 cells inducibly expressing MLKL mutants; assay type: cell-based, human; conditions: induced expression of the mutant
Source text: as §3
Cell death was quantified using the Cytotoxicity Detection Kit (Roche Applied Science) to determine the concentration of lactic dehydrogenase (LDH) in the mouse cell media or plasma.

CO/C1=C\C(C)=C\[C@@H](C)[C@@H](O)[C@@H](C)C/C(C)=C/C=C/[C@H](OC)[C@@H]([C@@H](C)[C@@H](O)[C@H](C)[C@@]2(O)C[C@@H](O)[C@H](C)[C@@H](C(C)C)O2)OC1=O [bafilomycin A1]
cellular levels of the EGFR (HepG2 cells [1]): withhold the decrease
difference in EGFR between cells expressing MLKL and cells deficient of it (HepG2 cells [1]): obliterate the difference
difference in EGFR between cells expressing MLKL and cells deficient of it (HepG2 cells [1]; listed as Baf A1): equal accumulation of EGFR

CCN(CC)CCCC(C)Nc1ccnc2cc(Cl)ccc12 (stereo not shown) [chloroquine]
cellular levels of the EGFR (HepG2 cells [1]): withhold the decrease
difference in EGFR between cells expressing MLKL and cells deficient of it (HepG2 cells [1]): obliterate the difference
difference in EGFR between cells expressing MLKL and cells deficient of it (HepG2 cells [1]; listed as CQ): equal accumulation of EGFR

C[C@H](CCC(=O)O)C[C@H](C)C[C@H](C)C(=O)/C=C(\O)[C@H](C)C[C@H](C)C/C=C/[C@@H](C)[C@@H](O)[C@@H](C)[C@@H](O)C[C@@H]1CC[C@@](C)([C@H]2CC[C@@](C)([C@@H](C)O)O2)O1 [ionomycin]
generation of exosomes (MEFs; MEFs): enhanced generation of exosomes
generation of exosomes (MEFs; MEFs deficient of MLKL): no such enhancement
generation of exosomes (HepG2 cells [2]; HepG2 cells): enhanced generation of exosomes
generation of exosomes (HepG2 cells [2]; HepG2 cells deficient of MLKL): no such enhancement

CN1C(=O)C(Cc2c[nH]c3ccccc23)NC1=S (stereo not shown) [necrostatin-1]
effect on enhancement of exosome generation by TBZ (HT29 cells): block this enhancement; also recorded: reversal

B1: T357E/S358D: MLKL with phospho-mimetic mutations of the residues that are the targets of phosphorylation by RIPK3 (protein, UniProt Q8NB16 1-471, looked up, variant T357E S358D)
Mixed lineage kinase …: MENLKHIITLGQVIHKRCEEMKYCKKQCRRLGHRVLGLIKPLEMLQDQGKRSVPSEKLTTAMNRFKAALEEANGEIEKFSNRSNICRFLTASQDKILFKDVNRKLSDVWKELSLLLQVEQRMPVSPISQGASWAQEDQQDADEDRRAFQMLRRDNEKIEASLRRLEINMKEIKETLRQYLPPKCMQEIPQEQIKEIKKEQLSGSPWILLRENEVSTLYKGEYHRAPVAIKVFKKLQAGSIAIVRQTFNKEIKTMKKFESPNILRIFGICIDETVTPPQFSIVMEYCELGTLRELLDREKDLTLGKRMVLVLGAARGLYRLHHSEAPELHGKIRSSNFLVTQGYQVKLAGFELRKTQEDMSLGTTREKTDRVKSTAYLSPQELEDVFYQYDVKSEIYSFGIVLWEIATGDIPFQGCNSEKIRKLVAVKRQQEPLGEDCPSELREIIDECRAHDPSVRPSVDEILKKLSTFSK
death of HepG2 cells within the time of the test (HepG2 cells [3]): no death
generation of exosomes [4]: levels higher than in cells expressing the wild type protein
intracellular degradation of EGF and EGFR following uptake [5]: facilitated
death in HT29 cells on inducible expression [6]: triggers death

B2: T357A/S358A: MLKL with the RIPK3 targeted residues replaced with alanine (protein, UniProt Q8NB16 1-471, looked up, variant T357A S358A)
Mixed lineage kinase …: B1 Mixed lineage kinase … with E357A, D358A
generation of exosomes [4]: compromised
induction of necroptosis/death by TBZ [6]: compromised

B3: 5A: MLKL in which Lys5, Lys16 Arg17, and Lys50 Arg51 were replaced with alanine (protein, UniProt Q8NB16 1-471, looked up, variant K5A K16A R17A K50A R51A)
Mixed lineage kinase …: B1 Mixed lineage kinase … with K5A, K16A, R17A, K50A, R51A, E357T, D358S
generation of exosomes [4]: failed to generate exosomes
induction of necroptosis/death by TBZ [6]: arrest death induction

B4: K230M/Q356A: MLKL with mutations within the ATP-binding pocket imposing the conformational change attained after phosphorylation (protein, UniProt Q8NB16 1-471, looked up, variant K230M Q356A)
Mixed lineage kinase …: B1 Mixed lineage kinase … with K230M, Q356A, E357T, D358S
death of HepG2 cells within the time of the test (HepG2 cells [3]): about 1%
generation of exosomes [4]: levels higher than in cells expressing the wild type protein
intracellular degradation of EGF and EGFR following uptake [5]: facilitated
death in HT29 cells on inducible expression [6]: triggers death

B5: MLKL deletion mutant corresponding to its 180 N-terminal amino acid coiled-coil region: MLKL deletion mutant, 180 N-terminal amino acids (protein, UniProt Q8NB16 1-180, looked up, fragment)
chain: MENLKHIITLGQVIHKRCEEMKYCKKQCRRLGHRVLGLIKPLEMLQDQGKRSVPSEKLTTAMNRFKAALEEANGEIEKFSNRSNICRFLTASQDKILFKDVNRKLSDVWKELSLLLQVEQRMPVSPISQGASWAQEDQQDADEDRRAFQMLRRDNEKIEASLRRLEINMKEIKETLRQYL
generation of exosomes [4]: significantly lower
cell death [7]: triggers necrotic death of the cells
